Laboratory results reported in patent US20220081480A1.
pKd: −log10 of the molar value.

Experiments:
[1] = molecular target: FcRn (UniProt P55899); experiment: BLI (Octet), steady state
[2] = molecular target: FCγRI (CD64) (UniProt P12314); experiment: BLI (Octet), antibody on FAB2G tips, kinetic fit
[3] = molecular target: FCγRIIa (CD32a)_H131 (UniProt P12318); experiment: BLI (Octet), steady state
Sequence of FCγRIIa (CD32a)_H131 (P12318 36-218 limits assumed): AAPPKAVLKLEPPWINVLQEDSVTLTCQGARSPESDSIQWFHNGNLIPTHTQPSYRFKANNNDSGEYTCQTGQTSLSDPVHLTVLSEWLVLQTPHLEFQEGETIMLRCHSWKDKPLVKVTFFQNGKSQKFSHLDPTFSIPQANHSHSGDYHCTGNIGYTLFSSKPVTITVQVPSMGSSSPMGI

| pKd [1] | pKd [2] | pKd [3] | Substance |
| --- | --- | --- | --- |
| 6.08 |  |  | hu14.18 IgG2h (FN-AQ, K322A)-delK (antibody) |
| 6.21 | 8.74 | 6.17 | hu14.18-huIgG1-delK (antibody) |
